# Source: patent US20180072816A1 (ADALTA, published 2018)
# “And” between values parts separate entries of the source, which are not always exact repeats. Equal values may be shown once.
# Legend:
# human CXCR4 [1] = target: T1, human CXCR4 (human, UniProt P61073 1-352); experiment: SPR (Biacore), CXCR4 expressed on lipoparticles
# T1 construct: also called hCXCR4; Fusin
# human CXCR4 [2] = target: T1, human CXCR4; experiment: cell-based or functional assay
# human CXCR4 [3] = target: T1, human CXCR4; experiment: cell-based or functional assay; remark: listed apart in the source
# human CXCR4 [4] = target: T1, human CXCR4; experiment: off-rate, CXCR4 expressed on lipoparticles
# CCR5 (on lipoparticles) = target: T2, CCR5 (on lipoparticles) (UniProt P51681 1-352, limits assumed); experiment: ELISA, single point, periplasmic fraction on CCR5 positive lipoparticles, 450 nm absorbance
# T2 construct: whole, on cells; Whole receptor in lipoparticles; also called CCR5 positive lipoparticles; GPCR CCR5
# T2 sequence (P51681 whole entry): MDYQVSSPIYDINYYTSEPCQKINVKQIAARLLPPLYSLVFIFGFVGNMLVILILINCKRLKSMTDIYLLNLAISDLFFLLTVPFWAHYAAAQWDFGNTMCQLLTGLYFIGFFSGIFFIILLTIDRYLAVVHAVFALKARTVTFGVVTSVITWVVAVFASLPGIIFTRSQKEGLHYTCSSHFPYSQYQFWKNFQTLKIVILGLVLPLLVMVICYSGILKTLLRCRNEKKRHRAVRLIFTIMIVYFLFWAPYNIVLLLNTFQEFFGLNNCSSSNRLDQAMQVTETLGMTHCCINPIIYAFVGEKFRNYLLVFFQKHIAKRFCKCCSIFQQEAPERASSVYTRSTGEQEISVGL
# human CXCR4 [5] = target: T1, human CXCR4; experiment: SPR (Biacore), immobilised CXCR4 lipoparticles
# human CXCR4 [6] = target: T1, human CXCR4; experiment: SPR
# human CXCR4 [7] = target: T1, human CXCR4; experiment: not told (affinity for CXCR4); parent i-body before affinity maturation
# human CXCR4 [8] = target: T1, human CXCR4; experiment: SPR (Biacore), immobilised CXCR4 lipoparticles; remark: listed apart in the source
# human CXCR4 [9] = target: T1, human CXCR4; experiment: SPR (Biacore), biotinylated CXCR4 lipoparticles captured on streptavidin (bt. CXCR4), i-body injected
# human serum albumin [10] = target: T3, human serum albumin (human, UniProt P02768 25-609); experiment: SPR
# T3 construct: also called HSA; HAS
# human CXCR4 [11] = target: T1, human CXCR4; experiment: SPR (Biacore), biotinylated CXCR4 lipoparticles (bt.CXCR4), three successive injections in one cycle
# human serum albumin [12] = target: T3, human serum albumin; experiment: SPR (Biacore), binding to HSA by the SA21 peptide
# human CXCR4 [13] = target: T1, human CXCR4; experiment: SPR (Biacore)
# human CXCR4 [14] = target: T1, human CXCR4; experiment: cell-based or functional assay; remark: listed apart in the source
# human CXCR4 [15] = target: T1, human CXCR4; experiment: not told
# human CXCR4 [16] = target: T1, human CXCR4; experiment: SPR (Biacore), biotinylated CXCR4 lipoparticles captured on streptavidin (bt. CXCR4), i-body injected; remark: listed apart in the source
# human CXCR4 [17] = target: T1, human CXCR4; experiment: phage display selection on hCXCR4 lipoparticles or CXCR4 positive cells
# human CXCR4 [18] = target: T1, human CXCR4; experiment: SPR (Biacore), biotinylated CXCR4 lipoparticles captured on streptavidin (bt. CXCR4), i-body injected; remark: listed apart in the source
# human CXCR4 [19] = target: T1, human CXCR4; experiment: flow cytometry on Ramos cells, anti-His-PE; i-body alone or with an excess of SDF-1, MAb 12G5 or AMD3100 [top panel]
# human CXCR4 [20] = target: T1, human CXCR4; experiment: flow cytometry on Ramos cells, anti-His-PE; i-body alone or with an excess of SDF-1, MAb 12G5 or AMD3100 [middle panel]
# T1 sequence (P61073 whole entry): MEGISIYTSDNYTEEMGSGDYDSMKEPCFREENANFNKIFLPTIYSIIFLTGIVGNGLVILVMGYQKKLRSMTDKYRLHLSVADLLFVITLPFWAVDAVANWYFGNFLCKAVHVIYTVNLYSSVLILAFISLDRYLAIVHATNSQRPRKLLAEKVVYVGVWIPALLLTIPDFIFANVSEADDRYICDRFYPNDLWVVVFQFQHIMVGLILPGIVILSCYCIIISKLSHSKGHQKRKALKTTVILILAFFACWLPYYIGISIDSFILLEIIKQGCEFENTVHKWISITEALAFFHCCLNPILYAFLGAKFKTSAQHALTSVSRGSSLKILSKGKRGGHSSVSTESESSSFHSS
binder,measurement,setting,value
AM3-920 (designed binder) LQVDIVPSQGEISVGESKFFLCQVAGSGSGIRISWFSPNGEKLTPNQQRISVVWNDDSSSTLTIYNANIDDAGIYKCVVWRTGGYRHRYLVLGEATVNVKIFQ,Kd,human CXCR4 [1],7.18 nM and 5.87 nM
same,kon,human CXCR4 [1],1.12e+06 M⁻¹ s⁻¹ and 1.26e+06 M⁻¹ s⁻¹
AM3-466 (designed binder) LQVDIVPSQGEISVGESKFFLCQVAGSGSHQRISWFSPNGEKLTPNQQRISVVWNDDSSSTLTIYNANIDDAGIYKCVVWRTGAYRHRALVLGEATVNVKIFQ,Kd,human CXCR4 [1],13.8 nM and 15.7 nM
same,kon,human CXCR4 [1],465000 M⁻¹ s⁻¹ and 426000 M⁻¹ s⁻¹
same,IC50 (nM) in β-Arrestin BRET assay (Antagonist mode in the presence of 100 nM SDF-1),human CXCR4 [2],6320 nM
AM4-1121 (designed binder) LQVDIVPSQGEISVGESKFFLCQVAGSKSGIRISWFSPNGEKLTPNQQRISVVWNDDSSSTLTIYNANIDDAGIYKCVVYRTGGYRHRYLRLGEATVNVKIFQ,Kd,human CXCR4 [1],7.21 nM and 6.7 nM
same,kon,human CXCR4 [1],1.29e+06 M⁻¹ s⁻¹ and 1.42e+06 M⁻¹ s⁻¹
same,cAMP inhibition IC50,human CXCR4 [3],125 nM
same,IC50 (nM) in β-Arrestin BRET assay (Antagonist mode in the presence of 100 nM SDF-1),human CXCR4 [2],796 nM
same,koff,human CXCR4 [4],0.0115 s⁻¹
AM3-523 (designed binder) LQVDIVPSQGEISVGESKFFLCQVAGSGSHMRISWFSPNGEKLTPNQQRISVVWNDDSSSTLTIYNANIDDAGIYKCVVWRVGGYRHRALVLGEATVNVKIFQ,Kd,human CXCR4 [1],8.53 nM and 9.47 nM
same,kon,human CXCR4 [1],1e+06 M⁻¹ s⁻¹ and 965000 M⁻¹ s⁻¹
same,cAMP inhibition IC50,human CXCR4 [3],225 nM
same,IC50 (nM) in β-Arrestin BRET assay (Antagonist mode in the presence of 100 nM SDF-1),human CXCR4 [2],12700 nM
AM4-613 (designed binder) LQVDIVPSQGEISVGESKFFLCQVAGSKSDVRISWFSPNGEKLTPNQQRISVVWNDDSSSTLTIYNANIDDAGIYKCVVWRTGGYRHRYLVLGEATVNVKIFQ,Kd,human CXCR4 [1],7.83 nM
same,kon,human CXCR4 [1],1.33e+06 M⁻¹ s⁻¹
same,IC50 (nM) in β-Arrestin BRET assay (Antagonist mode in the presence of 100 nM SDF-1),human CXCR4 [2],1830 nM
AM4-661 (designed binder) LQVDIVPSQGEISVGESKFFLCQVAGSKSDFRISWFSPNGEKLTPNQQRISVVWNDDSSSTLTIYNANIDDAGIYKCVVYRTGGYRHRYLVLGEATVNVKIFQ,Kd,human CXCR4 [1],9.53 nM and 9.66 nM
same,kon,human CXCR4 [1],966000 M⁻¹ s⁻¹ and 983000 M⁻¹ s⁻¹
same,IC50 (nM) in β-Arrestin BRET assay (Antagonist mode in the presence of 100 nM SDF-1),human CXCR4 [2],1540 nM
AM5-245 (designed binder) LQVDIVPSQGEISVGESKFFLCQAAGSGSHIRISWFSPNGEKLTPNQQRISVVWNDDSSSTLTIYNANIDDAGIYKCVVWRTGGYRHRALVLGEATVNVKIFQ,Kd,human CXCR4 [1],14.9 nM and 15.9 nM
same,kon,human CXCR4 [1],813000 M⁻¹ s⁻¹ and 771000 M⁻¹ s⁻¹
AM4-746 (designed binder) LQVDIVPSQGEISVGESKFFLCQVAGSKSNIRISWFSPNGEKLTPNQQRISVVWNDDSSSTLTIYNANIDDAGIYKCVVYRTGGYRHRYLKLGEATVNVKIFQ,Kd,human CXCR4 [1],5.36 nM
same,kon,human CXCR4 [1],2.5e+06 M⁻¹ s⁻¹
same,cAMP inhibition IC50,human CXCR4 [3],115 nM
same,IC50 (nM) in β-Arrestin BRET assay (Antagonist mode in the presence of 100 nM SDF-1),human CXCR4 [2],741 nM
"ADCX-99 (designed binder, i-body (human NCAM1 domain 1 scaffold); also called wild-type i-body ADCX-99) LQVDIVPSQGEISVGESKFFLCQVAGSGSDIRISWFSPNGEKLTPNQQRISVVWNDDSSSTLTIYNANIDDAGIYKCVVYRTGGYRHRALVLGEATVNVKIFQ",binding result,CCR5 (on lipoparticles),no binding
same,Kd,human CXCR4 [5],~600 nM and 623 nM
same,Kd,human CXCR4 [6],643 nM
same,Kd,human CXCR4 [7],> 700 nM
same,Kd,human CXCR4 [8],700 nM
"ADCX-272 (designed binder, i-body (human NCAM1 domain 1 scaffold)) LQVDIVPSQGEISVGESKFFLCQVAGHLEVRSISWFSPNGEKLTPNQQRISVVWNDDSSSTLTIYNANIDDAGIYKCVVEQRGRSQSYFSEATVNVKIFQ",binding result,CCR5 (on lipoparticles),no binding
same,Kd,human CXCR4 [9],1620 nM
same,Kd,human CXCR4 [8],1600 nM
AM3-114-Im7-FH-SA21 dual specificity i-body (designed binder) MALQVDIVPSQGEISVGESKFFLCQVAGSLSGIRISWFSPNGEKLTPNQQRISVVWNDDSSSTLTIYNANIDDAGIYKCVVWRTGGYRHRYLVLGEATVNVKIFQGGGGSELKNSISDYTEAEFVQLLKEIEKENVAATDDVLDVLLEHFVKITEHPDGTDLIYYPSDNRDDSPEGIVKEIKEWRAANGKPGFKQGGGGGSDYKDDDDKGSGHHHHHHHHGGGGSRLIEDICLPRWGCLWEDD,Kd,human CXCR4 [6],5 to 10 nM
same,Kd,human serum albumin [10],~500 nM
same,Kd,human CXCR4 [11],9.2 nM
same,koff,human CXCR4 [11],0.002 s⁻¹
same,kon,human CXCR4 [11],210000 M⁻¹ s⁻¹
same,Kd,human serum albumin [12],518 nM
same,Kd,human CXCR4 [13],9 nM
"21H5 control i-body (designed binder, Control i-body used as isotype control; also called negative control i-body; isotype control i-body) LQVDIVPSQGEISVGESKFFLCQVAGDAKDKDISWFSPNGEKLTPNQQRISVVWNDDSSSTLTIYNANIDDAGIYKCVVTGSDAMSNYSYPISESEATVNVKIFQ",Calcium Inhibition EC50,human CXCR4 [14],> 10000 nM
same,cAMP inhibition IC50,human CXCR4 [3],> 10000 nM
same,binding result,human CXCR4 [15],no binding
"ADCX-668 (designed binder, i-body (human NCAM1 domain 1 scaffold)) LQVDIVPSQGEISVGESKFFLCQVAGTIWYEQISWFTPNGEKLTPNQQRISVVWNDDSSSTLTIYNANIDDAGIYKCVVWTRPVTSSMHEATVNVKIFQ",Kd,human CXCR4 [16],42300 nM
same,Kd,human CXCR4 [8],42000 nM
"ADCX-6 (designed binder, i-body (human NCAM1 domain 1 scaffold); also called ACDX-6) LQVDIVPSQGEISVGESKFFLCQVAGLTSLEGISWFSPNGEKLTPNQQRISVVWNDDSSSTLTIYNANIDDAGIYKCVVEDHPQYSKMEEATVNVKIFQ",binding result,human CXCR4 [17],binds
"ADCX-306 (designed binder, i-body (human NCAM1 domain 1 scaffold)) LQVDIVPSQGEISVGESKFFLCQVAGFQEWVNWFSPNGEKLTPNQQRISVVWNDDSSSTLTIYNANIDDAGIYKCVVTMPHTLNNLDVRTEATVNVKIFQ",Kd,human CXCR4 [5],22500 nM
same,Kd,human CXCR4 [18],22500 nM
same,Kd,human CXCR4 [8],22000 nM
"AM3-114-6H (designed binder, Construct with N-terminal EAEA and 6H tag, detected with anti-His-PE; not shown: 6H tag (six histidines by the label)) EAEALQVDIVPYQGEISVGESKFFLCQVAGSLSGIRISWFSPNGEKLTPNQQRISVVWNDDSSSTLTIYNANIDDAGIYKCVVWRTGGYRHRYLVLGEATVNVKIFQ",binding result,human CXCR4 [19],binds
"AM4-272-6H (designed binder, Construct with N-terminal EAEA and 6H tag, detected with anti-His-PE; not shown: 6H tag (six histidines by the label)) EAEALQVDIVPSQGEISVGESKFFLCQVAGSYSDYRISWFSPNGEKLTPNQQRISVVWNDDSSSTLTIYNANIDDAGIYKCVVYRIGGYRHRYLVLGEATVNVKIFQ",binding result,human CXCR4 [20],binds
"ADCX-54 (designed binder, i-body (human NCAM1 domain 1 scaffold)) LQVDIVPSQGEISVGESKFFLCQVAGRTIIVEISWFSPNGEKLTPNQQRISVVWNDDSSSTLTIYNANIDDAGIYKCVVVLSIRGKWELEATVNVKIFQ",binding result,human CXCR4 [17],binds
